Assay [1] has as its target T1, human mu opioid receptor (human, UniProt P35372 1-400).
T1 construct: whole, on cells; Assayed as CHO cell membranes; also called hMOR; MOR
Kind of assay: competition vs [3H]DAMGO, hMOR CHO cell membranes (summary table).

Assay [2] concerns the target T2, human delta opioid receptor (human, UniProt P41143 1-372). Kind of assay: cell-based or functional assay.
For assay [3], the target named is T1, human mu opioid receptor. Put plainly: cell-based or functional assay.
In assay [4] the target is T2, human delta opioid receptor. Kind of assay: competition vs [3H]naltrindole, hDOR CHO cell membranes (summary table).
Assay [5] has as its target T1, human mu opioid receptor. Kind of assay: competition vs 0.25 nM [3H]DAMGO, hMOR CHO cell membranes.
For assay [6], the target named is T2, human delta opioid receptor. Kind of assay: competition vs 0.2 nM [3H]naltrindole, hDOR CHO cell membranes.
Assay [7] shares this target. Kind of assay: radioligand competition; reference hMOR. A general note: Loss of bound radioactivity is the signal in a displacement assay; it reports binding, not function.
Assay [8] addresses human kappa opioid receptor (human) (UniProt P41145). Put plainly: inhibition of [3H]U69,593 binding at 10 uM peptide, hKOR CHO cell membranes.
Assay [9] addresses T2, human delta opioid receptor. Put plainly: competition vs 0.2 nM [3H]naltrindole, hDOR CHO cell membranes. The source holds these as a separate data set.
Assay [10] concerns the target human kappa opioid receptor (human) (UniProt P41145). Put plainly: inhibition of [3H]U69,593 binding at 10 uM peptide, hKOR CHO cell membranes. The source holds these as a separate data set.
Assay [11] concerns the target T1, human mu opioid receptor. Kind of assay: competition vs 0.25 nM [3H]DAMGO, hMOR CHO cell membranes. The source holds these as a separate data set.
Assay [12] deals with T2, human delta opioid receptor. Put plainly: competition vs [3H]naltrindole, hDOR CHO cell membranes; reference DPDPE.

For orientation: Ki means a measure of affinity in units of concentration, obtained from inhibition or displacement. For orientation: IC50 means the concentration needed to halve the response being measured. The low end stands for greater potency, the high end for weaker potency.

Where two headings read alike, the source gives them in different places. Non-standard residues stand in square brackets, D forms with d. *: point of attachment. βGlc = OC[C@H]1O[C@@H](*)[C@H](O)[C@@H](O)[C@@H]1O; Nle = CCCC[C@H](N)C(=O)O; Nva = CCC[C@H](N)C(=O)O

T1 sequence (P35372 whole entry): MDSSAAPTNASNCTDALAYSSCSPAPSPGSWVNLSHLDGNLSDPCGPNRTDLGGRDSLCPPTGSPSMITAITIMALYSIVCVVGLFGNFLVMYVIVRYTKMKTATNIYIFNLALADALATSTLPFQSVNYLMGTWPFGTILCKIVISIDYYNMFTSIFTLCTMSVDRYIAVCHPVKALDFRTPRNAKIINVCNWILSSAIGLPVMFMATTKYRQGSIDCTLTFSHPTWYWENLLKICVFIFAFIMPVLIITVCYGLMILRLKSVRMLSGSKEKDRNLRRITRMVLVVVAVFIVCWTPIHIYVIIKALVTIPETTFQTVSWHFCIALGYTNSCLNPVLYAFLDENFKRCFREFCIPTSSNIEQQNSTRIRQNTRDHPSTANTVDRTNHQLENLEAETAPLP
T2 sequence (P41143 whole entry, stated change not applied): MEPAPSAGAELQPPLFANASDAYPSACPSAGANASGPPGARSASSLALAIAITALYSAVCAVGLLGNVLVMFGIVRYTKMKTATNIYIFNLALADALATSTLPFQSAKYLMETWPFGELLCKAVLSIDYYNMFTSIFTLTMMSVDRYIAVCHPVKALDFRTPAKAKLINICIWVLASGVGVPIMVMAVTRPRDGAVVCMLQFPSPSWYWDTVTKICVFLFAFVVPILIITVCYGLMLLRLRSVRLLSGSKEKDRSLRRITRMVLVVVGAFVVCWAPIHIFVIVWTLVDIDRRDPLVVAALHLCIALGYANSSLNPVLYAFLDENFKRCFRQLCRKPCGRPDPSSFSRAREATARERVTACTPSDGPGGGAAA
Chain of human kappa opioid receptor (human) (P41145 whole entry): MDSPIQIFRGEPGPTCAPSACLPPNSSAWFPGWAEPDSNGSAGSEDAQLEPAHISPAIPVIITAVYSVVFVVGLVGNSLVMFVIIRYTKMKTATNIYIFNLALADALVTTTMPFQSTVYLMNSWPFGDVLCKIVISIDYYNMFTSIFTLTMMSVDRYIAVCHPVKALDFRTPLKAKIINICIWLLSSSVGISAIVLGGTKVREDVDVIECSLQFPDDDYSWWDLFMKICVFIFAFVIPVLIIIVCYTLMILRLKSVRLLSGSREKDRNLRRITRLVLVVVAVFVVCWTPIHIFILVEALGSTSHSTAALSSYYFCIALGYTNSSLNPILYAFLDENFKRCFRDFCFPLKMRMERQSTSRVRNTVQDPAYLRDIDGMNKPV

DPDPE (peptide): in the assay with human mu opioid receptor [1], the Ki turned out to be 180 nM.

In turn, “11009 (H2N-YaFE-Nle-Nle-T-amide) (peptide)” returned an EC50 (nM), agonist properties, [35S]GTPγS binding in [2] of 12 nM. For the same molecule, the EMax (%), agonist properties, [35S]GTPγS binding in [2] is 67%; with human mu opioid receptor [3] it was 42%.

B1: 11005 = Deltorphin B1, H2N-YaFE-Nva-Nva-S(beta-D-Glc)-amide (peptide)
peptide: H-Y[dA]FE[Nva][Nva]S(βGlc)-NH2
SMILES: CCC[C@H](NC(=O)[C@H](CCC)NC(=O)[C@H](CCC(=O)O)NC(=O)[C@H](Cc1ccccc1)NC(=O)[C@@H](C)NC(=O)[C@@H](N)Cc1ccc(O)cc1)C(=O)N[C@@H](CO[C@@H]1O[C@H](CO)[C@@H](O)[C@H](O)[C@H]1O)C(N)=O
notes: also called glycopeptide 11005
On to B1, for which the inhibition constant Ki in assay [4] stood at 20 nM; in the assay with human mu opioid receptor [1], 710 nM; with human mu opioid receptor [5], 710 nM; in assay [6], 20 nM. The results for the IC50 (in the assay with human mu opioid receptor [5]; in assay [6]) were 1000 nM and 61 nM, respectively. In addition, the “Selectivity Delta:Mu” value in [7] was 36 fold (Ki mu over Ki delta). This molecule also yielded a Max Inhib at 10 uM (%) in assay [8] of 5.3%.

B2: 11008 = Deltorphin B4, H2N-YaFE-Nle-Nle-T(beta-D-Glc)-amide (peptide)
peptide: H-Y[dA]FE[Nle][Nle]T(βGlc)-NH2
SMILES: CCCC[C@H](NC(=O)[C@H](CCC(=O)O)NC(=O)[C@H](Cc1ccccc1)NC(=O)[C@@H](C)NC(=O)[C@@H](N)Cc1ccc(O)cc1)C(=O)N[C@@H](CCCC)C(=O)N[C@H](C(N)=O)[C@@H](C)O[C@@H]1O[C@H](CO)[C@@H](O)[C@H](O)[C@H]1O
Take B2: the IC50 is 42 nM in assay [9] and 1500 nM with human mu opioid receptor [11]. For the same molecule, the Ki in [9] was found to be 14 nM; in assay [4], 14 nM; in the assay with human mu opioid receptor [1], 1100 nM; in the assay with human mu opioid receptor [11], 1100 nM. The molecule also returned a Max Inhib at 10 uM (%) in [10] of 2.9%. Besides, the “EC50 (nM), agonist properties, [35S]GTPγS binding” value in assay [2] was found to be 12 nM. The “Selectivity Delta:Mu” value in assay [7] was 79 fold (Ki mu over Ki delta). In addition, the “fold lower affinity than DPDPE” value in assay [12] is approximately 3 fold.

(Values after US20140249091A1 (BIOUSIAN BIOSYSTEMS, published 2014).)
